Target: T1, PIP4K2a on the HuProt human protein chip (human, UniProt P48426 1-406)
T1 construct: Phosphatidylinositol-5-phosphate 4-kinase type 2 alpha, human recombinant protein of the HuProt chip; construct not described; source: human recombinant protein, highly purified, spotted on the HuProt human protein chip
T1 sequence (looked up): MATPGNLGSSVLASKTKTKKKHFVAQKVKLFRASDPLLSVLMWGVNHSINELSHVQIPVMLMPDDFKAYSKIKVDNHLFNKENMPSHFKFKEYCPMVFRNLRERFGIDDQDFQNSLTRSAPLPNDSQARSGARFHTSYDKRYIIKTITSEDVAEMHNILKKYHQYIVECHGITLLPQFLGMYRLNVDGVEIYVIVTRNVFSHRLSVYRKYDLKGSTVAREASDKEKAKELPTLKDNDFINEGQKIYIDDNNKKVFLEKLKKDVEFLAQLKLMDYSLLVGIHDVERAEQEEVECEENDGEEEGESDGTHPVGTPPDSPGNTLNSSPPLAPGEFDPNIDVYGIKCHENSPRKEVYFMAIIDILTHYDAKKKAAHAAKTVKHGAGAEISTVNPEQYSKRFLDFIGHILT
Assay: peptide or protein array; HuProt human protein chip (>21,000 purified human recombinant proteins on nitrocellulose-coated slides), renatured in 50 mM Tris-HCl pH 8.0, 100 mM NaCl, 1 mM DTT, 0.3% Tween 20, blocked with 5% BSA; probed with 50 nM purified human MIF for 1 h; detected with rabbit anti-MIF and Cy3 anti-rabbit IgG; hit if SNR of both duplicates over 1.2
Settings: both partners purified

B1: recombinant human MIF (rhMIF) (natural protein, UniProt P14174 1-115, looked up)
chain: MPMFIVNTNVPRASVPDGFLSELTQQLAQATGKPPQYIAVHVVPDQLMAFGGSSEPCALCSLHSIGKIGGAQNRSYSKLLCGLLAERLRISPDRVYINYYDMNAANVGWNNSTFA
notes: No catalogue number printed; also called purified human MIF protein; human recombinant MIF protein; source: bought: R&D Systems
B1: binds.
